From the supplement of paper PMC5998384 come the findings set out here.

Data set [1] relates to HeLa Kyoto. Kind of data set: thermal stability score vs G1/S (z-score of summed log2 fold changes over temperatures); higher = more thermally stable than in G1/S.
In data set [2] the test system is HeLa Kyoto. As to the kind of experiment: melting temperature (median over replicates), in situ; higher = more thermally stable.
Data set [3] has as its system HeLa Kyoto. As to the kind of experiment: solubility in G1/S (NP-40 vs SDS abundance) (log2 ratio); higher = more soluble. As to conditions: cell cycle stage: G1/S.
The test system of data set [4] is HeLa Kyoto. As to the kind of experiment: solubility change mitosis vs G1/S (difference of NP-40 vs SDS log2 ratios) (log2 ratio difference); higher = more soluble in mitosis.
The mark [5] stands for this setting: cell cycle stage: early G1 (4.5 h after nocodazole release).
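For melting temperature (median over replicates), in situ in this document: HeLa Kyoto cells synchronized by double thymidine or nocodazole block, proteins quantified by TMT10plex mass spectrometry, three independent biological replicates.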
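For solubility change mitosis vs G1/S (difference of NP-40 vs SDS log2 ratios) in this document: synchronized HeLa Kyoto cells (double thymidine block for G1/S, nocodazole release for mitosis), protein amounts in NP-40 versus SDS lysates quantified by mass spectrometry, three biological replicates.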
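For solubility in G1/S (NP-40 vs SDS abundance) in this document: HeLa Kyoto cells arrested at G1/S by double thymidine block, proteins quantified by TMT10plex mass spectrometry in mild NP-40 versus SDS extracts, three biological replicates.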
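For thermal stability score vs G1/S (z-score of summed log2 fold changes over temperatures) in this document: synchronized HeLa Kyoto cells, proteins quantified by TMT10plex mass spectrometry, three biological replicates, mitosis taken 0.5 h after nocodazole release, G1/S directly after double thymidine block.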

Consider “MAGGGAGDPGLGAAAAPAPETREHLFKVLVIGELGVGKTSIIKRYVHQLFSQHYRATIGVDFALKVLNWDSRTLVRLQLWDIAGQERFGNMTRVYYKEAVGAFVVFDISRSSTFEAVLKWKSDLDSKVHLPNGSPIPAVLLANKCDQNKDSSQSPSQVDQFCKEHGFAGWFETSAKDNINIEEAARFLVEKILVNHQSFPNEENDVDKIKLDQETLRAENKSQCC [RAB32]”, for which the thermal stability score in data set [1] (setting [5]) amounted to 4.46; in data set [1] (cell cycle stage: mitosis), 2.79. Besides, the values for the melting temperature in data set [2] (cell cycle stage: G1/S) and in data set [2] (cell cycle stage: mitosis) were 51.8 °C and 53.4 °C, respectively. Further, the “solubility in G1/S (log2)” value in data set [3] is -0.00216. Besides, in data set [4], the “solubility change mitosis (log2)” value was -0.0818.

Take SBF1: the thermal stability score in data set [1] (setting [5]) is 0.301; in data set [1] (cell cycle stage: mitosis) it was -0.247. Also, the melting temperature turned out to be 50.9 °C in data set [2] (cell cycle stage: G1/S) and 50.4 °C in data set [2] (cell cycle stage: mitosis). For the same substance, the “solubility in G1/S (log2)” value in data set [3] was -0.118. Also, in data set [4], the “solubility change mitosis (log2)” value is -0.108.

On to “MSWSPSLTTQTCGAWEMKERLGTGGFGNVIRWHNQETGEQIAIKQCRQELSPRNRERWCLEIQIMRRLTHPNVVAARDVPEGMQNLAPNDLPLLAMEYCQGGDLRKYLNQFENCCGLREGAILTLLSDIASALRYLHENRIIHRDLKPENIVLQQGEQRLIHKIIDLGYAKELDQGSLCTSFVGTLQYLAPELLEQQKYTVTVDYWSFGTLAFECITGFRPFLPNWQPVQWHSKVRQKSEVDIVVSEDLNGTVKFSSSLPYPNNLNSVLAERLEKWLQLMLMWHPRQRGTDPTYGPNGCFKALDDILNLKLVHILNMVTGTIHTYPVTEDESLQSLKARIQQDTGIPEEDQELLQEAGLALIPDKPATQCISDGKLNEGHTLDMDLVFLFDNSKITYETQISPRPQPESVSCILQEPKRNLAFFQLRKVWGQVWHSIQTLKEDCNRLQQGQRAAMMNLLRNNSCLSKMKNSMASMSQQLKAKLDFFKTSIQIDLEKYSEQTEFGITSDKLLLAWREMEQAVELCGRENEVKLLVERMMALQTDIVDLQRSPMGRKQGGTLDDLEEQARELYRRLREKPRDQRTEGDSQEMVRLLLQAIQSFEKKVRVIYTQLSKTVVCKQKALELLPKVEEVVSLMNEDEKTVVRLQEKRQKELWNLLKIACSKVRGPVSGSPDSMNASRLSQPGQLMSQPSTASNSLPEPAKKSEELVAEAHNLCTLLENAIQDTVREQDQSFTALDWSWLQTEEEEHSCLEQAS [IKBKB]”, for which the thermal stability score was 1.13 in data set [1] (setting [5]) and 2.17 in data set [1] (cell cycle stage: mitosis). Also, the melting temperature in data set [2] (cell cycle stage: G1/S) is 48.3 °C; in data set [2] (cell cycle stage: mitosis), 49.2 °C. Besides, the “solubility in G1/S (log2)” value in data set [3] came to 0.0875. Moreover, in data set [4], the “solubility change mitosis (log2)” value was -0.171.

Regarding “MSVEAYGPSSQTLTFLDTEEAELLGADTQGSEFEFTDFTLPSQTQTPPGGPGGPGGGGAGGPGGAGAGAAAGQLDAQVGPEGILQNGAVDDSVAKTSQLLAELNFEEDEEDTYYTKDLPIHACSYCGIHDPACVVYCNTSKKWFCNGRGNTSGSHIVNHLVRAKCKEVTLHKDGPLGETVLECYNCGCRNVFLLGFIPAKADSVVVLLCRQPCASQSSLKDINWDSSQWQPLIQDRCFLSWLVKIPSEQEQLRARQITAQQINKLEELWKENPSATLEDLEKPGVDEEPQHVLLRYEDAYQYQNIFGPLVKLEADYDKKLKESQTQDNITVRWDLGLNKKRIAYFTLPKTDSGNEDLVIIWLRDMRLMQGDEICLRYKGDLAPLWKGIGHVIKVPDNYGDEIAIELRSSVGAPVEVTHNFQVDFVWKSTSFDRMQSALKTFAVDETSVSGYIYHKLLGHEVEDVIIKCQLPKRFTAQGLPDLNHSQVYAVKTVLQRPLSLIQGPPGTGKTVTSATIVYHLARQGNGPVLVCAPSNIAVDQLTEKIHQTGLKVVRLCAKSREAIDSPVSFLALHNQIRNMDSMPELQKLQQLKDETGELSSADEKRYRALKRTAERELLMNADVICCTCVGAGDPRLAKMQFRSILIDESTQATEPECMVPVVLGAKQLILVGDHCQLGPVVMCKKAAKAGLSQSLFERLVVLGIRPIRLQVQYRMHPALSAFPSNIFYEGSLQNGVTAADRVKKGFDFQWPQPDKPMFFYVTQGQEEIASSGTSYLNRTEAANVEKITTKLLKAGAKPDQIGIITPYEGQRSYLVQYMQFSGSLHTKLYQEVEIASVDAFQGREKDFIILSCVRANEHQGIGFLNDPRRLNVALTRARYGVIIVGNPKALSKQPLWNHLLNYYKEQKVLVEGPLNNLRESLMQFSKPRKLVNTINPGARFMTTAMYDAREAIIPGSVYDRSSQGRPSSMYFQTHDQIGMISAGPSHVAAMNIPIPFNLVMPPMPPPGYFGQANGPAAGRGTPKGKTGRGGRQKNRFGLPGPSQTNLPNSQASQDVASQPFSQGALTQGYISMSQPSQMSQPGLSQPELSQDSYLGDEFKSQIDVALSQDSTYQGERAYQHGGVTGLSQY [UPF1]”, the thermal stability score in data set [1] (setting [5]) is -3.14; in data set [1] (cell cycle stage: mitosis), -8.04. The melting temperature in data set [2] (cell cycle stage: G1/S) was found to be 54.3 °C; in data set [2] (cell cycle stage: mitosis), 52.3 °C. Besides, in data set [3], the “solubility in G1/S (log2)” value came to 0.0497. Moreover, the “solubility change mitosis (log2)” value in data set [4] was -0.0177.

As to “MAMVTGGWGGPGGDTNGVDKAGGYPRAAEDDSASPPGAASDAEPGDEERPGLQVDCVVCGDKSSGKHYGVFTCEGCKSFFKRSIRRNLSYTCRSNRDCQIDQHHRNQCQYCRLKKCFRVGMRKEAVQRGRIPHSLPGAVAASSGSPPGSALAAVASGGDLFPGQPVSELIAQLLRAEPYPAAAGRFGAGGGAAGAVLGIDNVCELAARLLFSTVEWARHAPFFPELPVADQVALLRLSWSELFVLNAAQAALPLHTAPLLAAAGLHAAPMAAERAVAFMDQVRAFQEQVDKLGRLQVDSAEYGCLKAIALFTPDACGLSDPAHVESLQEKAQVALTEYVRAQYPSQPQRFGRLLLRLPALRAVPASLISQLFFMRLVGKTPIETLIRDMLLSGSTFNWPYGSGQ [NR2F6]”, the thermal stability score in data set [1] (setting [5]) amounted to 0.278; in data set [1] (cell cycle stage: mitosis), 0.498. The melting temperature in data set [2] (cell cycle stage: G1/S) amounted to 53.1 °C; in data set [2] (cell cycle stage: mitosis), 50.3 °C. Further, in data set [3], the “solubility in G1/S (log2)” value was found to be 0.0616. Besides, the “solubility change mitosis (log2)” value in data set [4] is -0.047.
